According to the DeepSol protein solubility set:

Assay: soluble on expression in E. coli; label from the status in PepcDB or PDB records

Sequence	soluble on expression in E. coli
MSLEKTTRMNYLFDFYQSLLTSKQKSYMSLYYLDDFSLGEIAEEYEVSRQAVYDNIKRTEAMLEQYEEKLLLLKKFQERKEMFNKLKELASGSKEEEEITALIEALEKLD	soluble
MKTIWTGAIGFGLVNIPVKLFSATHESRLDLDMLDKKDHSNIKFQRVNAKTGKEVAWDNIVKGYKIEDDYVILDEKDFEKANAKKTKTIEILQFVQEDEIDSVYFETPYYIQPDKSGTRAYALLREALIKSKKVAVANYVLRNKEALAILKPVGNVIVLNKIRFQEEILDADALDLPAKSAIKEGEMKMALSLIDQLTETFDISKYKDTYTSELLKLIKAKAKGTVVKTKSAASKPTATKDLMAQLKASLQPTKRAAAR	not soluble
MGSDKIHHHHHHMGTDSEKAIPPKVSRAAAEWLVELHSGQVGKEVREQWQAWRAAHPDHERAWQHIEMLGERLGGLSSSLAHATMAPRGSLRRRRAIKTLAMLLFAGGSAWVVQEKTPWWQLSADYSTGIGEQRRIELEDGTVVDLNSSSAINVAYTQQQRILMLLRGEMHVATASESATARPFLIASDQGSVRAFGTRFVVRQLTNEKDSPIKVGVLEGAVEVAPSEMPARVRLQAGEQLSFTRHMVTPIEPVIPHDTAWLQRMLVADDMPLGEFLAELSRYRKGSLGCDHSIKHLKVSGTYPLDDTDKVIEMLQQSLNLQVRMLTRYWVRLMPPAA	not soluble
MDEQEIQRLVEEVSLQYFGMPFLHKAMFNSRLRTTGGRYLLNTHNIELNYRYYEMYGKEELVGIVKHELCHYHLHITGRGYKHRDKDFRELLKAVDAPRFCKRMINEEKGKKVYMYECMECSLQYVRRRQINTKRYVCGKCKGKLILIKKTSLEHHHHHH	not soluble
MNKLITVIRDFSYSVYNWCYETVIGENTRKYKMTWKVPKESLKIIVNKNADARMQRELENRTAKDEANALTSRRRVFGSYALIGTQRAEFIQFRQIKHIDITNASLDFLYNLKQLKHDNLANFYGIQLNDDLNTMTILHALVERGTLEEFCLDRDFGMDETFKSAFMRDILKGLQYLHLSPVAYHGHLHAATCLIDINWVLKIALYGVTNFVCDNFDAENITMPDRSDYTISYAQYVCFPPEHIREYDATGKLPTRFVRGSKQGDIYCVGMIFYMMIEREDPYRLIHSVERPGSGLMMEILDHNLMPFISNNETQEDTLLDKCKECWNRDPEKRPTIENLRNAIAICYADSKGNLIDQMIRMNEKYADELETLVAARSADLALAQMQTMRLLNEMLPASIAKDLKNGVIAPARSYASATVMFVQICDFIVILKRRPPKEVIGFLNDIFDQFDTVIKRHDVETTGETYMVASGVPNENEGRHVFEVAEMSLEIRAISLSYTLENDKNYKLRVRIGFHAGPIAAGVIGIKNPRYCLFGDTVNFASRMQSNCPPLQIQTSEITARMLLATHEYKLVKRGIVHVKGKGEVNCYWLNEHIHKDEEIEESGTISHPLES	not soluble
MAHHHHHHMGGAIYNAVNIAEIVKRRIAGLHQITELGSELVRDEYEPIDRTQNPENVVVERKVSTILITLSRNCLDKSNPGYQEPIADSEVTEQERRDPNMSRRGGRGGIRGGRGGSRGGRGGSRGGRGGSRGGRGVAAIDRRDDREN	not soluble
DMPVEKIQEAEMAVEPKDGNMVEQPNDPVTNICQAADKQLVTLVEWAKRIPHFSDLPIDDQVILLRAGWNELLIAAFSHRSIDVKDGILLASGLHVHRSSAHQAGVGTIFDRVLTELVAKMRDMKMDKTELGCLRAIVLFNPDAKGLTDPSLVESLREKVYASLEEYCKQQYPEQPGRFAKLLLRLPALRSIGLKCLEHLFFFKLIGDTPIDTFLMEML	soluble
MKVAILGYGTVGSAVVKFLLENDKLIRARCGQSITPVIALARSPKKNALIPITHSVAEILNADVDVFVELMGGVDEAFKIVSEILKKKKAVVTANKAMLAYHRYELENLAKNLAFGYEASVAGGIPIIKVLKEGLSANNILAIKGILNGTSNYILSSMSQKNMSFKQALQIAQNLGYAEADPTFDIEGQDAAHKLLVLSSIAYNLKAKPEDILIEGISEIAPEDMYFANEFEFTIKLLGIAKVRENKVELRVHPTMIDKEKMLAKVDGVMNAISINGDLLGESLYYGAGAGGEATASAVISDLMDIARDQVKAPMLGFVNTLEYKLLSKDEIYTKYYLRVKVEDKIGILSKITQLMSENNISIDSFLQKPKKNDENYSTLFFTTHLTYEKSIQNLLEILRKQDFIKTKPFMMRIE	not soluble
MAATSGTDEPVSGELVSVAHALSLPAESYGNDPDIEMAWAMRAMQHAEVYYKLISSVDPQFLKLTKVDDQIYSEFRKNFETLRIDVLDPEELKSESAKEKWRPFCLKFNGIVEDFNYGTLLRLDCSQGYTEENTIFAPRIQFFAIEIARNREGYNKAVYISVQDKEGEKGVNNGGEKRADSGEEENTKNGGEKGADSGEEKEEGINREDKTDKGGEKGKEADKEINKSGEKAM	soluble
MVPAPEAIRQALQERLLARLDHPDPLYRDLLQDYPRRGGKMLRGLLTVYSALAHGAPLEAGLEAATALELFQNWVLVHDDIEDGSEERRGRPALHRLHPMPLALNAGDAMHAEMWGLLAEGLARGLFPPEVLLEFHEVVRRTAYGQHLDLLWTLGGTFDLRPEDYFRMVAHKAAYYTAVAPLRLGALLAGKTPPAAYEEGGLRLGTAFQIVDDVLNLEGGEAYGKERAGDLYEGKRTLILLRFLEEAPPEERARALALLALPREAKPEAEVGWLLERLLASRALAWAKAEAKRLQAEGLALLEAAFQDLPGKEALDHLRGLLAALVERRA	soluble
MGSDKIHHHHHHMYTREELMEIVSERVKKCTACPLHLNRTNVVVGEGNLDTRIVFVGEGPGEEEDKTGRPFVGRAGMLLTELLRESGIRREDVYICNVVKCRPPNNRTPTPEEQAACGHFLLAQIEIINPDVIVALGATALSFFVDGKKVSITKVRGNPIDWLGGKKVIPTFHPSYLLRNRSNELRRIVLEDIEKAKSFIKKEG	soluble
MGHHHHHHSHSGGRNKIRKILDKTRFSILPPKLFSDGGLSQSQDDSIVGTRHCRHSLAIMPIPGTLSSSSPDLLQPTTSMLDFSNPSDIPDQVIRVFKVDQQSCYIIISKDTTAKEVVFHAVHEFGLTGASDTYSLCEVSVTPEGVIKQRRLPDQFSKLADRIQLNGRYYLKNNMETETLC	not soluble
MLRLSAPGQLDDDLCLLGDVQVPVFLLRLGEASWALVEGGISRDAELVWADLCRWVADPSQVHYWLITHKHYDHCGLLPYLCPRLPNVQVLASERTCQAWKSESAVRVVERLNRQLLRAEQRLPEACAWDALPVRAVADGEWLELGPRHRLQVIEAHGHSDDHVVFYDVRRRRLFCGDALGEFDEAEGVWRPLVFDDMEAYLESLERLQRLPTLLQLIPGHGGLLRGRLAADGAESAYTECLRLCRRLLWRQSMGESLDELSEELHRAWGGQSVDFLPGELHLGSMRRMLEILSRQALPLD	not soluble
PLYLGLMSGTSIDGIDAALVRINANPITHCELIAAQTSAWDPNLRTTLLELSQGQNTASLDQLGWLDAQVGLAFATAANTLIAKTGIKHTQIRAIGSHGQTIRHRPHGDLPFTWQLGDAHRIAELTGITTVADFRRRDVAAGGQGAPLMPAFHLAILGSANENRAVLNLGGIANLTLIPMTGPVLGFDTGPANALLDSWYQRHHHETFDQSGNFAASGKINQKLLACLLDDPWFTLPPPKSTGREQFHLDWMTKQLEPTPPSPADVQATLLELTAVTVADALLRQQPKTTRLLICGGGAHNPVLMARLATHLPNVTVESIQTYGLNPDYLEAMGFAWLAAQTLDGQPSNLPSVTGARGLRLLGAIHPA	not soluble
GRTVVVLGGGISGLAASYHLSRAPCPPKVVLVESSERLGGWIRSVRGPNGAIFELGPRGIRPAGALGARTLLLVSELGLDSEVLPVRGDHPAAQNRFLYVGGALHALPTGLRGLLRPSPPFSKPLFWAGLRELTKPRGKEPDETVHSFAQRRLGPEVASLAMDSLCRGVFAGNSRELSIRSCFPSLFQAEQTHRSILLGLLLGAGRTPQPDSALIRQALAERWSQWSLRGGLEMLPQALETHLTSRGVSVLRGQPVCGLSLQAEGRWKVSLRDSSLEADHVISAIPASVLSELLPAEAAPLARALSAITAVSVAVVNLQYQGAHLPVQGFGHLVPSSEDPGVLGIVYDSVAFPEQDGSPPGLRVTVMLGGSWLQTLEASGCVLSQELFQQRAQEAAATQLGLKEMPSHCLVHLHKNCIPQYTLGHWQKLESARQFLTAHRLPLTLAGASYEGVAVNDCIESGRQAAVSVLGTEPNS	soluble
MRRSNEPTKRKSTTGHGDYAEHKKRKSMSKEATPVLEENLTPDVMINNLHEIVTQILENQELPETAIIELEGFDATAATMEEYMQKREETRKLVTDSEFFDQKTELNLSVASLAGAQVEVDKRVTTRGMSRKLHDECGINEKDILYQGLDYHGTESRVSKELRDSRQASIIESCVDFQKQIQWKIGIMEKVKAKSGRSYPMSDGPSVRTRGGQDKQREEMKKQQKELEKSKKQRKTRAAGEQDPFKTPQKKIEFNALDERRIIENYQLEVASEIRTHRPFLSRSIAPVPFNIDILDDEEEEMEIS	not soluble
MTTTSAFMLNVRLDNVAVVAIDVPGEKVNTLKAEFATQVRAILKQIRENKALQGVVFISAKADNFIAGADINMIGHCQNAQEAETLARQGQQLMAEIQALPVPVIAAIHGACLGGGLEMALACHRRICTDDVKTVLGLPEVQLGLLPGSGGTQRLPRLVGVSTALDMILTGKQLRARQALKAGLVDDVVPQTILLEAAVELAKKERLAQRTLPVRERILAGPLGRALLFRLVRKKTAQKTQGNYPATERIIDVIETGLAQGSSSGYDAEARAFGELAMTPQSQALRAIFFASTEVKKDPGSDAPPGPLNSVGILGGGLMGGGIAWVTACKGGLPVRIKDINTQGINHALKYSWDLLETKVRRRHIKASERDKQLALISGSTDYRGFSHRDLVIEAVFEDLPLKQQMVAEVEQNCAAHTIFASNTSSLPIGDIAANAARPEQVIGLHFFSPVEKMPLVEVIPHASTSAQTIATTVKLAKKQGKTPIVVSDKAGFYVNRILAPYINEAIRMLTEGERVEHIDAALVKFGFPVGPIQLLDEVGIDTGTKIIPVLEAAYGERFSAPANVVASILNDDRKGRKNGRGFYLYGEKGRKSKKQVDPAIYKLIGVQGQSRLSAQQVAERCVMLMLNEAARCFDEKVIRSARDGDIGAVFGIGFPPFLGGPFRYMDALGPGEMVATLQRLAALYGPRYAPCEQLVRMAERREHFWTNGETDQGN	not soluble
MAHHHHHHMMLHTRRTVYSCICVHTHTHTHTCGCPPPTLSQKKKRSRLFMSSSSGDEYDPAEVTVHTTVASPSLSDTVVPSAAPFLRSAAGNASAATVAAAPALASLPKTAASVLPSSSSPTPPNTGNDVDGGYRLHSNIKGRIRCLTLNTAGTTLCAGSEDGQLCMWDFTVPLKSYRVQPTRVLTPFVNRISGLQPIIALTCASDDSYFVACQDGDSPVLVRASGEQLGYCAIGERGLMDVIQCKGHRAPVTCVAAHTHDAAAFFTGSQDGTVRLWNTATFKQRSVYAVKHGSGQLTDTHAVESVASLDSFHNGLGRVFASGGQDGRVQIWDSRVKYRPGGAIATVDMYAAAAPAGPDKVTEDPFMEKHVGGMMELHQKDAGASNASGSYGLAVRLGSAVKIIDLRQLSHSDGTTAPKAVLQEAATGLPHVLDTSALSIGRGGGSSTMMTCTSRVGYRHTKGGHVVQYRYADGDRLVPTLVWRAGKQDEDVLCACADISRADGCVFAGLSSGDVVVHGAFSSGAAAPQPMEAWLQTRPQREGYERAVGVKAPRAVEDDADLLRDLF	not soluble
MDFYYLPGSAPCRAVQMTAAAVGVELNLKLTNLMAGEHMKPEFLKINPQHCIPTLVDNGFALWESRAICTYLAEKYGKDDKLYPKDPQKRAVVNQRLYFDMGTLYQRFADYYYPQIFAKQPANAENEKKMKDAVDFLNTFLDGHKYVAGDSLTIADLTVLATVSTYDVAGFELAKYPHVAAWYERTRKEAPGAAINEAGIEEFRKYFEK	soluble
